Reference: patent publication US20210130436A1 (published 2021)

How the values were obtained:
human PD-L1 [1] = target: T1, human PD-L1 (human, UniProt Q9NZQ7 19-290); experiment: flow cytometry; MFI on CHO/PD-L1 over MFI on Jurkat (CD28), 33.3 nM
T1 construct: whole, on cells; also called huPD-L1

human CTLA-4 = target: T2, human CTLA-4 (human, UniProt P16410 36-223); experiment: flow cytometry, CHO cells stably expressing huCTLA4, 33.3 nM, PE anti-human Fc
T2 construct: whole, on cells; also called huCTLA4

human CD28 = target: T3, human CD28 (human, UniProt P10747 19-220); experiment: flow cytometry, Jurkat/IL2 reporter cells (endogenous CD28), 33.3 nM, PE anti-human Fc
T3 construct: whole, on cells; Endogenous CD28 of Jurkat/IL2 reporter cells

human PD-L1 [2] = target: T1, human PD-L1; experiment: flow cytometry, CHO cells stably expressing huPD-L1, 33.3 nM, PE anti-human Fc
[3] = target: T4, human CTLA4 (huCTLA4), full-length, stably expressed on CHO cells (human, UniProt P16410 36-223); experiment: flow cytometry, CHO cells expressing huCTLA4
T4 construct: whole, on cells

[4] = target: T5, CD28, endogenously expressed on Jurkat/IL2 reporter cells (human, UniProt P10747 19-220); experiment: flow cytometry, Jurkat/IL2 reporter cells (endogenous CD28)
T5 construct: whole, on cells

[5] = target: T4, human CTLA4 (huCTLA4), full-length, …; experiment: flow cytometry, CHO cells expressing huCTLA4; MFI against WT CD80 of the table
[6] = target: T5, CD28, endogenously expressed on …; experiment: flow cytometry, Jurkat/IL2 reporter cells (endogenous CD28); MFI against WT CD80 of the table
[7] = target: T6, human PD-L1 (huPD-L1), full-length, stably expressed on CHO cells (human, UniProt Q9NZQ7 19-290); experiment: flow cytometry, CHO cells expressing huPD-L1; MFI against WT CD80 of the table
T6 construct: whole, on cells

[8] = target: T6, human PD-L1 (huPD-L1), full-length, …; experiment: flow cytometry, CHO cells expressing huPD-L1
[9] = target: T6, human PD-L1 (huPD-L1), full-length, …; experiment: flow cytometry; MFI on PD-L1 CHO cells over MFI on Jurkat cells (CD28)

T2 sequence (P16410 36-223): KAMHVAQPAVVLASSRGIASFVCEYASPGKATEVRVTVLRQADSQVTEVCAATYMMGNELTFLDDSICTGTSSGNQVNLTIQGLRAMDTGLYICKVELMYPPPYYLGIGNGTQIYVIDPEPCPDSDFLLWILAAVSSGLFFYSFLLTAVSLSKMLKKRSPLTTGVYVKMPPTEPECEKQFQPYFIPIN
T4 sequence (P16410 36-223): as above
T6 sequence (Q9NZQ7 19-290): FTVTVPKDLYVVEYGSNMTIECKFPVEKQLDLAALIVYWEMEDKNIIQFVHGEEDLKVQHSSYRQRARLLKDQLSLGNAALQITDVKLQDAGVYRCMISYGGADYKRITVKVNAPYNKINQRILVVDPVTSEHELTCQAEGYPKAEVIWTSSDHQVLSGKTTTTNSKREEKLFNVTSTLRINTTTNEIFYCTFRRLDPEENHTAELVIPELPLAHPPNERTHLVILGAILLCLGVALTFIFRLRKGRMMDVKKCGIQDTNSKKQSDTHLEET
T1 sequence (Q9NZQ7 19-290): as above

Binder	Ratio of PDL1:CD28 (human PD-L1 [1]) [ratio]	Fold change to WT CD80 (human CTLA-4) [fold]	MFI at 33.3 nM (human CTLA-4) [MFI]	Fold change to WT (human CD28) [fold]	MFI at 33.3 nM (human CD28) [MFI]	Fold change to WT (human PD-L1 [2]) [fold]	MFI at 33.3 nM (human PD-L1 [2]) [MFI]	MFI at 33.3 nM [3] [MFI]	MFI at 33.3 nM [4] [MFI]	Fold change to WT CD80 [5] [fold]	Fold change to WT CD80 [6] [fold]	Fold change to WT CD80 [7] [fold]	MFI at 33.3 nM [8] [MFI]	Ratio of PDL1:CD28 [9] [ratio]
E24D/Q27R/E35D/T41S/M47V/L85Q CD80 IgV-Fc (Fc fusion, not shown: a dimerising Fc or GST) VIHVTKEVKEVATLSCGHNVSVEDLARTRIYWQKDKKMVLSMMSGDVNIWPEYKNRTIFDITNNLSIVILALRPSDEGTYECVVQKYEKDAFKREHLAEVTLSVKAD	44	13.5	13900	1.6	66	34.3	2860							
E35D/D46E/M47L/V68M/L85Q/F92L CD80 IgV-Fc (Fc fusion, not shown: a dimerising Fc or GST) VIHVTKEVKEVATLSCGHNVSVEELAQTRIYWQKDKKMVLTMMSGELNIWPEYKNRTIFDITNNLSIMILALRPSDEGTYECVVQKYEKDALKREHLAEVTLSVKAD	863	0.2	214			158	13200							
E35D/M47L/V68M/A71G/L85Q/D90G CD80 IgV-Fc (Fc fusion, not shown: a dimerising Fc or GST) VIHVTKEVKEVATLSCGHNVSVEELAQTRIYWQKDKKMVLTMMSGDLNIWPEYKNRTIFDITNNLSIMILGLRPSDEGTYECVVQKYEKGAFKREHLAEVTLSVKAD	12	10.1	10300	33.9	1400	202	16800							
H18Y/V22A/E35D/T41S/M47V/T62N/A71G/A91G CD80 IgV-Fc (Fc fusion, not shown: a dimerising Fc or GST) VIHVTKEVKEVATLSCGYNVSAEELAQTRIYWQKDKKMVLSMMSGDVNIWPEYKNRTIFDINNNLSIVILGLRPSDEGTYECVVLKYEKDGFKREHLAEVTLSVKAD	5	10	10300	38.5	1590	101	8460							
Q33R/M47V/T62N/A71G CD80 IgV-Fc (Fc fusion, not shown: a dimerising Fc or GST) VIHVTKEVKEVATLSCGHNVSVEELAQTRIYWRKEKKMVLTMMSGDVNIWPEYKNRTIFDINNNLSIVILGLRPSDEGTYECVVLKYEKDAFKREHLAEVTLSVKAD	719	0.3	308			146	12200							
S15T/H18Y/E35D/M47V/T62A/N64S/A71G/L85Q/D90N CD80 IgV-Fc (Fc fusion, not shown: a dimerising Fc or GST) VIHVTKEVKEVATLTCGYNVSVEELAQTRIYWQKDKKMVLTMMSGDVNIWPEYKNRTIFDIANSLSIVILGLRPSDEGTYECVVQKYEKNAFKREHLAEVTLSVKAD	13	10.7	11000	25.9	1070	166	13900							
variant CD80 IgV-Fc E35D/M43I/M47L/V68M (Fc fusion, not shown: small tags and cut ends; a dimerising Fc or GST) VIHVTKEVKEVATLSCGHNVSVEELAQTRIYWQKDKKMVLTMISGDLNIWPEYKNRTIFDITNNLSIMILALRPSDEGTYECVVLKYEKDAFKREHLAEVTLSVKAD								16200	1520	9.3	48.3	328	16900	11.1
variant CD80 IgV-Fc E35D/M47L/Y53F/V68M/A71G/K93R/E95V (Fc fusion, not shown: small tags and cut ends; a dimerising Fc or GST) VIHVTKEVKEVATLSCGHNVSVEELAQTRIYWQKDKKMVLTMMSGDLNIWPEFKNRTIFDITNNLSIMILGLRPSDEGTYECVVLKYEKDAFRRVHLAEVTLSVKAD								16000	383	9.1	12.2	486	25000	65.3
variant CD80 IgV-Fc E35D/M47V/N48K/V68M/A71G/L85M (Fc fusion, not shown: small tags and cut ends; a dimerising Fc or GST) VIHVTKEVKEVATLSCGHNVSVEELAQTRIYWQKDKKMVLTMMSGDVKIWPEYKNRTIFDITNNLSIMILGLRPSDEGTYECVVMKYEKDAFKREHLAEVTLSVKAD								16600	302	9.5	9.6	442	22800	75.4
variant CD80 IgV-Fc E35D/M47V/N48K/V68M/L85M (Fc fusion, not shown: small tags and cut ends; a dimerising Fc or GST) VIHVTKEVKEVATLSCGHNVSVEELAQTRIYWQKDKKMVLTMMSGDVKIWPEYKNRTIFDITNNLSIMILALRPSDEGTYECVVMKYEKDAFKREHLAEVTLSVKAD								15600	245	8.9	7.8	148	7620	31.1
variant CD80 IgV-Fc E35D/T41S/D46E/M47I/V68M/K93R/E95V (Fc fusion, not shown: small tags and cut ends; a dimerising Fc or GST) VIHVTKEVKEVATLSCGHNVSVEELAQTRIYWQKDKKMVLSMMSGEINIWPEYKNRTIFDITNNLSIMILALRPSDEGTYECVVLKYEKDAFRRVHLAEVTLSVKAD								18400	476	10.5	15.2	287	14800	31.1
variant CD80 IgV-Fc H18Y/E35D/V68M/T79M/L85M (Fc fusion, not shown: small tags and cut ends; a dimerising Fc or GST) VIHVTKEVKEVATLSCGYNVSVEELAQTRIYWQKDKKMVLTMMSGDMNIWPEYKNRTIFDITNNLSIMILALRPSDEGMYECVVMKYEKDAFKREHLAEVTLSVKAD								16300	1040	9.3	33.2	290	14900	14.3
variant CD80 IgV-Fc H18Y/V22D/E35D/M47V/N48K/V68M (Fc fusion, not shown: small tags and cut ends; a dimerising Fc or GST) VIHVTKEVKEVATLSCGYNVSDEELAQTRIYWQKDKKMVLTMMSGDVKIWPEYKNRTIFDITNNLSIMILALRPSDEGTYECVVLKYEKDAFKREHLAEVTLSVKAD								15800	257	9	8.2	250	12900	50.1
